According to the RNAGym collection of RNA variant scans (doi:10.7554/elife.80360):

B1: HDV Ribozyme (parent)
chain: GGCCGGCAUGGUCCCAGCCUCCUCGCUGGCGCCGGCUGGGCAACAUUCCGAGGGGACCGUCCCCUCGGUAAUGGCGAAUGGGACCCA

Variants of: B1
Assay: self-cleavage, relative activity (ratio to wild type); higher = more cleavage; co-transcriptional
For C33G A45C, the self-cleavage was 0.0449. In the case of C32G C64G, the self-cleavage is reported as 0.0405. For G34C G82C, the self-cleavage was 0.117. For C33G G59C, the self-cleavage was 0.201. With G34A G54A the self-cleavage was 0.16. With C33G G52U the self-cleavage was 0.119. In the case of C32A C85U, the self-cleavage is reported as 0.231. For G34U C64U, the self-cleavage was 0.246. G34A G73A gave a self-cleavage of 0.128. Variant G34C G55C has a self-cleavage of 0.261. G34C G68C showed a self-cleavage of 0.128. Variant C32G G38U has a self-cleavage of 0.089. C33U C36A showed a self-cleavage of 0.151. C32G C57A gave a self-cleavage of 0.106. G34U C36G showed a self-cleavage of 0.0302. C32U G82U gave a self-cleavage of 0.256. In the case of C32A C49A, the self-cleavage is reported as 0.415. For C33A G81U, the self-cleavage was 0.0978. With C33U C49G the self-cleavage was 0.855. Variant C32G G67C has a self-cleavage of 0.149. C32A C64A showed a self-cleavage of 0.166. Variant C32A C64G has a self-cleavage of 0.131. With G34A A70U the self-cleavage was 0.132. Work on C33U A71G yielded a self-cleavage of 0.886. Variant C33U G82A has a self-cleavage of 0.302. With G34C C58A the self-cleavage was 0.161. C32A C63U showed a self-cleavage of 0.332. In the case of G34A U65A, the self-cleavage is reported as 0.0692. For G34A U65G, the self-cleavage was 0.178. With G34A U65C the self-cleavage was 0.141. Variant C32A G74U has a self-cleavage of 0.117. Work on G34A C86A yielded a self-cleavage of 0.0683. Work on C32U G34C yielded a self-cleavage of 0.0875. In the case of C32U G34U, the self-cleavage is reported as 0.215. Work on C32U G34A yielded a self-cleavage of 0.0302. With C33G G50A the self-cleavage was 0.148. C33G G50C showed a self-cleavage of 0.246. C32G A56U showed a self-cleavage of 0.0482. Work on C32A U46C yielded a self-cleavage of 0.128. For C32A U46G, the self-cleavage was 0.138. With G34U C57G the self-cleavage was 0.178. Variant C33U G53U has a self-cleavage of 0.916. With C33A U37A the self-cleavage was 0.151. C32U G74C gave a self-cleavage of 0.224. Work on C33U G67A yielded a self-cleavage of 0.749. With G34A U37A the self-cleavage was 0.0554. G34A U37C showed a self-cleavage of 0.102. G34C C63U gave a self-cleavage of 0.287. C33A A78C gave a self-cleavage of 0.0997. Variant C33U G59U has a self-cleavage of 0.855. G34C U72C showed a self-cleavage of 0.19. C33U A83G showed a self-cleavage of 0.511. Variant C33U A83U has a self-cleavage of 0.415. In the case of C33G U47G, the self-cleavage is reported as 0.0723. With C33G C62A the self-cleavage was 0.225. Variant C33G U72A has a self-cleavage of 0. C33G U72G showed a self-cleavage of 0. Work on C32A U79G yielded a self-cleavage of 0.133. In the case of C32A U79C, the self-cleavage is reported as 0.0733. G34C G39U showed a self-cleavage of 0.156. For G34A G80A, the self-cleavage was 0.0241. In the case of G34A U72A, the self-cleavage is reported as 0.17. In the case of C33A A51U, the self-cleavage is reported as 0.373. With C33A U46G the self-cleavage was 0.0615. Variant C32U C49A has a self-cleavage of 0.683. In the case of G34U G39U, the self-cleavage is reported as 0.115. Variant G34U G39C has a self-cleavage of 0.111. With C32U U69C the self-cleavage was 1.19. Variant C32U A43G has a self-cleavage of 0.63. With C32U A43U the self-cleavage was 0.491. For G34A G59C, the self-cleavage was 0.225. G34A G59U showed a self-cleavage of 0.266. With G34A G59A the self-cleavage was 0.214. In the case of C33A C41U, the self-cleavage is reported as 0.163. In the case of C33U C62A, the self-cleavage is reported as 0.583. C33U C62G gave a self-cleavage of 0.635. Variant C33U G54U has a self-cleavage of 0.901. Work on C33U G54A yielded a self-cleavage of 1.05. Work on C33U G54C yielded a self-cleavage of 0.623. G34U C49U showed a self-cleavage of 0.136. For C33A A45G, the self-cleavage was 0.0536. Work on G34A G53A yielded a self-cleavage of 0.174. Work on G34U A56U yielded a self-cleavage of 0.18. With G34C U46G the self-cleavage was 0.0504.
